Test results reported in article PMC3409205, “Crystal Structure of TNF-α-Inducing Protein from Helicobacter Pylori in Active Form Reveals the Intrinsic Molecular Flexibility for Unique DNA-Binding” (PLoS ONE, 2012).

Columns and labels:
TipαN25 R77A/R81A = TipαN25 R77A/R81A (Helicobacter pylori 26695, UniProt O25318 25-192, R77A;R81A); experiment: ITC; pH 5.0; n=0.491; ITC: 50 mM citric acid/Na citrate pH 5.0, 150 mM NaCl, 25 °C; SPR: 50 mM Hepes pH 7.0, 150 mM NaCl, 0.005% Tween20, 25 °C; details: protein: recombinant; tags: C-terminal LE-6xHis; chain copies: 2; called ssDNA by authors; self-complementary repeat
TipαN25 (wild type) [1] = target: T1, TipαN25 (wild type) (Helicobacter pylori 26695, UniProt O25318 25-192); experiment: ITC; pH 5.0; n=0.925 dimer per DNA; ITC: 50 mM citric acid/Na citrate pH 5.0, 150 mM NaCl, 25 °C; SPR: 50 mM Hepes pH 7.0, 150 mM NaCl, 0.005% Tween20, 25 °C; details: protein: recombinant; tags: C-terminal LE-6xHis; chain copies: 2; called ssDNA by authors; self-complementary repeat
TipαN25 R77A = TipαN25 R77A (Helicobacter pylori 26695, UniProt O25318 25-192, R77A); experiment: ITC; pH 5.0; n=0.477; ITC: 50 mM citric acid/Na citrate pH 5.0, 150 mM NaCl, 25 °C; SPR: 50 mM Hepes pH 7.0, 150 mM NaCl, 0.005% Tween20, 25 °C; details: protein: recombinant; tags: C-terminal LE-6xHis; chain copies: 2; called ssDNA by authors; self-complementary repeat
TipαN25 H60A [2] = target: T2, TipαN25 H60A (Helicobacter pylori 26695, UniProt O25318 25-192, H60A); experiment: ITC; pH 5.0; n=0.5; ITC: 50 mM citric acid/Na citrate pH 5.0, 150 mM NaCl, 25 °C; SPR: 50 mM Hepes pH 7.0, 150 mM NaCl, 0.005% Tween20, 25 °C; details: protein: recombinant; tags: C-terminal LE-6xHis; chain copies: 2; called ssDNA by authors; self-complementary repeat
TipαN25 K65A/K66A = TipαN25 K65A/K66A (Helicobacter pylori 26695, UniProt O25318 25-192, K65A;K66A); experiment: ITC; pH 5.0; n=0.921; ITC: 50 mM citric acid/Na citrate pH 5.0, 150 mM NaCl, 25 °C; SPR: 50 mM Hepes pH 7.0, 150 mM NaCl, 0.005% Tween20, 25 °C; details: protein: recombinant; tags: C-terminal LE-6xHis; chain copies: 2; called ssDNA by authors; self-complementary repeat
TipαN25 K104A = TipαN25 K104A (Helicobacter pylori 26695, UniProt O25318 25-192, K104A); experiment: ITC; pH 5.0; n=0.87; ITC: 50 mM citric acid/Na citrate pH 5.0, 150 mM NaCl, 25 °C; SPR: 50 mM Hepes pH 7.0, 150 mM NaCl, 0.005% Tween20, 25 °C; details: protein: recombinant; tags: C-terminal LE-6xHis; chain copies: 2; called ssDNA by authors; self-complementary repeat
TipαN25 (wild type) [3] = target: T1, TipαN25 (wild type); experiment: ITC; pH 5.0; n=1.17; ITC: 50 mM citric acid/Na citrate pH 5.0, 150 mM NaCl, 25 °C; SPR: 50 mM Hepes pH 7.0, 150 mM NaCl, 0.005% Tween20, 25 °C; details: protein: recombinant; tags: C-terminal LE-6xHis; chain copies: 2; called ssDNA by authors; self-complementary repeat
TipαN25 H60A [4] = target: T2, TipαN25 H60A; experiment: SPR; pH 7.0; ka 2.9 M-1 s-1, kd 1.75E-04 s-1; ITC: 50 mM citric acid/Na citrate pH 5.0, 150 mM NaCl, 25 °C; SPR: 50 mM Hepes pH 7.0, 150 mM NaCl, 0.005% Tween20, 25 °C; details: protein: recombinant; tags: C-terminal LE-6xHis; chain copies: 2; label: 5' biotin; called ssDNA by authors; self-complementary repeat
TipαN25 (wild type) [5] = target: T1, TipαN25 (wild type); experiment: ITC; pH 5.0; n about 1; ITC: 50 mM citric acid/Na citrate pH 5.0, 150 mM NaCl, 25 °C; SPR: 50 mM Hepes pH 7.0, 150 mM NaCl, 0.005% Tween20, 25 °C; details: protein: recombinant; tags: C-terminal LE-6xHis; chain copies: 2
[6] = target: the molecule itself; experiment: SEC; analytical gel filtration, Superdex 75 10/300 GL, no reducing agent, pH 4.0 and pH 7.0, dimeric protein concentration 2 mg/ml (also 0.05 and 0.25 mg/ml, Fig. S1)
TipαN25 (wild type) [7] = target: T1, TipαN25 (wild type); experiment: ITC; pH 5.0; n=1.47; ITC: 50 mM citric acid/Na citrate pH 5.0, 150 mM NaCl, 25 °C; SPR: 50 mM Hepes pH 7.0, 150 mM NaCl, 0.005% Tween20, 25 °C; details: protein: recombinant; tags: C-terminal LE-6xHis; chain copies: 2; called ssDNA by authors; self-complementary repeat

GCGCGCGCGCGCGCGCGCGC (ssDNA) [(dGdC)10, 20 nt] gave a Ka (TipαN25 R77A/R81A) of 140000 M⁻¹, a Ka (TipαN25 (wild type) [1]) of 1.04e+06 M⁻¹ and a Ka (TipαN25 R77A) of 479000 M⁻¹. It also gave a Ka (TipαN25 H60A [2]) of 28200 M⁻¹, a Ka (TipαN25 K65A/K66A) of 261000 M⁻¹ and a Ka (TipαN25 K104A) of 631000 M⁻¹.

GCGCGCGCGCGCGCGCGCGCGCGCGCGCGCGCGCGCGCGC (ssDNA) [(dGdC)20, 40 nt] was tested, and the Ka (TipαN25 (wild type) [3]) was 937000 M⁻¹.

With GCGCGCGCGCGCGCGCGCGC (ssDNA) [5'-biotin (dGdC)10, 20 nt] the Kd (TipαN25 H60A [4]) was 60.3 µM.

B1: 20 bp dsDNA (dsDNA)
DNA 1: GCCTTGCCGCCGCCCTTGCC
DNA 2: GGCAAGGGCGGCGGCAAGGC
In the case of B1, the Ka (TipαN25 (wild type) [5]) is reported as 1.02e+06 M⁻¹.

B2: TipαN^25 (N-terminal-truncated TNF-α-inducing protein Tipα starting from residue Cys25) (domain or fragment)
chain: CTCPNTSQRNSFLQDVPYWMLQNRSEYITQGVDSSHIVDGKKTEEIEKIATKRATIRVAQNIVHKLKEAYLSKTNRIKQKITNEMFIQMTQPIYDSLMNVDRLGIYINPNNEEVFALVRARGFDKDALSEGLHKMSLDNQAVSILVAKVEEIFKDSVNYGDVKVPIAM
notes: Tipα (TNF-α-inducing protein), Helicobacter pylori strain 26695, gene 0596, 192 amino acids; residues 25-192 (Δ1–24), amplified from genomic DNA into pET22b(+); The entry is the single chain (protomer); A SeMet form (E. coli B834) was used only for phasing; also called Tipα (Δ1–24); native TipαN^25; source: E. coli BL21 (DE3), purified (Ni-NTA, Hitrap SP cation exchange, Superdex 75)
For B2, the “stoichiometry N” value [6] was 2.

B3: (dGdC)30, 60 nt (ssDNA)
DNA: GCGCGCGCGCGCGCGCGCGCGCGCGCGCGCGCGCGCGCGCGCGCGCGCGCGCGCGCGCGC
With B3 the Ka (TipαN25 (wild type) [7]) was 1.03e+06 M⁻¹.
